Values belong to the binder of their own block, whether it stands above or below them.
B2: FITC-labelled JD_(1-77) (domain or fragment)
chain: not shown
modifications: FITC-maleimide label (site not stated)

Legend:
FITC-labelled JD_(1-77) [1] = target: B2; test: MST
FITC-labelled JD_(1-77) [2] = target: B2; test: fluorescence polarisation
HspA1A (human Hsp70) = HspA1A (human Hsp70) (human, UniProt P0DMV8 1-641); test: fluorescence polarisation
cross-linking = target: the molecule itself; test: cross-linking
dynamic light scattering = target: the molecule itself; test: dynamic light scattering

HspA1A (human Hsp70), sequence (P0DMV8 whole entry): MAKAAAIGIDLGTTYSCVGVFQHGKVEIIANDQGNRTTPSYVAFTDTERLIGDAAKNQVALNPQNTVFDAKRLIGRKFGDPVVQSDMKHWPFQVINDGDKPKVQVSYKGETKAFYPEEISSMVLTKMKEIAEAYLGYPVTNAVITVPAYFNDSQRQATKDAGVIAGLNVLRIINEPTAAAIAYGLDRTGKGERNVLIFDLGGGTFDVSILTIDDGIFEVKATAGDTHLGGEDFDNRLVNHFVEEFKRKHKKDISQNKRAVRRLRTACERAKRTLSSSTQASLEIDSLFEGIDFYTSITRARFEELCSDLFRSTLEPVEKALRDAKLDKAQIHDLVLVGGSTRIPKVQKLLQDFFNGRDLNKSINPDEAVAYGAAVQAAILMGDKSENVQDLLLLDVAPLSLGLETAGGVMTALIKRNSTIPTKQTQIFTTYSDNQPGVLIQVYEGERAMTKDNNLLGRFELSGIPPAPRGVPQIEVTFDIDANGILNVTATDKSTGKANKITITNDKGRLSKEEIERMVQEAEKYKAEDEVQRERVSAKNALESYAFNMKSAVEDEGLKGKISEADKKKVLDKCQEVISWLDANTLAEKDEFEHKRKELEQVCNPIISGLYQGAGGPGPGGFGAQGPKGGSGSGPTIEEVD

Kd (FITC-labelled JD_(1-77) [1]): 5360 ± 1150 nM | Kd (FITC-labelled JD_(1-77) [2]): 542 ± 71 nM
B1: DnaJB8 C-terminal domain CTD_(170-232) (domain or fragment, human, UniProt Q8NHS0 170-232, looked up)
chain: GGSSSGSSGFKSVMSSTEMINGHKVTTKRIVENGQERVEVEEDGQLKSVTVNGKEQLKWMDSK

Binder: B2
Kd (HspA1A (human Hsp70)): 257 ± 29 nM

B3: DnaJB8-mClover3 fusion protein (natural protein, human, UniProt Q8NHS0 1-232, looked up)
chain: MANYYEVLGVQASASPEDIKKAYRKLALRWHPDKNPDNKEEAEKKFKLVSEAYEVLSDSKKRSLYDRAGCDSWRAGGGASTPYHSPFDTGYTFRNPEDIFREFFGGLDPFSFEFWDSPFNSDRGGRGHGLRGAFSAGFGEFPAFMEAFSSFNMLGCSGGSHTTFSSTSFGGSSSGSSGFKSVMSSTEMINGHKVTTKRIVENGQERVEVEEDGQLKSVTVNGKEQLKWMDSK
binding result (cross-linking): binds

B4: DnaJB8 (recombinant full-length wild type) (natural protein, human, UniProt Q8NHS0 1-232, looked up)
chain: MANYYEVLGVQASASPEDIKKAYRKLALRWHPDKNPDNKEEAEKKFKLVSEAYEVLSDSKKRSLYDRAGCDSWRAGGGASTPYHSPFDTGYTFRNPEDIFREFFGGLDPFSFEFWDSPFNSDRGGRGHGLRGAFSAGFGEFPAFMEAFSSFNMLGCSGGSHTTFSSTSFGGSSSGSSGFKSVMSSTEMINGHKVTTKRIVENGQERVEVEEDGQLKSVTVNGKEQLKWMDSK
binding result (dynamic light scattering): binds
